Results on 30 sequences are retold here after the nanobody polyreactivity screen of Harvey et al. (2022).

This data set is described as follows: yeast display, Sf9 membrane polyspecificity reagent, FACS + sequencing; frameworks hold sequencing errors. Put shortly:
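Synthetic nanobody libraries on Saccharomyces cerevisiae BJ5465 were galactose-induced for 36–48 hours, stained 1 hour at 4 °C with 10% biotinylated, detergent-solubilized Sf9 membrane reagent and enriched on streptavidin microbeads. FACS then separated cells into low and high (top ~1%) gates by anti-HA (expression) and streptavidin (reagent binding) fluorescence. Genes were colony-PCR amplified, MiSeq 2 × 250 sequenced and CDR-length filtered. A clone's polyreactivity label is that of its gate of origin.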
On to “QVQLVESGGGLVQAGGSLLLICADSGITFYGNAMGWYRQAPGKERELVAAISSSGGTTYYADSVKGRFTISRDNAKNTVYLQMNSLKPEDTAVYYCNAVDGIHPYASPSFQQYDYWGQGTQVTVSS”, for which the “polyreactivity (PSR sort gate)” value is “low polyreactivity”.
In the case of “QVQLVESGGGLVQAGGSLLLNCAASGITFAGNAMGWYRQAPGKERELLAAISGSGGSTSYADSVKGRFTISRDDAKNTVYLQMNSLKPEDTAVYYGSAASRLYHWHALFGSWGQGTQVTVSS” it was “low polyreactivity”; in that of “QVQLVESGGGLVQAGGSLLLSCAASGFSFEKNAMGWYIQEPGKERELVAAISRGGSTYADSVKGRFTISRDNAKNTVYLQMYSRKPVDTAVYYCAADTVYIFSSAINGEFGYWGQGTQVTVSS”, “low polyreactivity”; in that of “QVQLVESGGGLVQAGGSLLLSCAASGFTFKYYAMGWYRQEPGKERELVAAINRSVGSTYYADSVKGRFTISRDNAKNTVYLQMNSLKPEDTAVYYCNARVRVPVTLHDYWGQGTQVTVSS”, “high polyreactivity”.
With “QVQLVESGGGLVQAGGSLLLSCAASGFTFSVYAMGWYRQEPGKERELVAAINFSGGNTFYADSVKGRFTISRDYAKNTVYLQMNSLKPEDSAVYYCAAEDYKITRYVVRWYEYWGQGTQVTVSS” the entry was “high polyreactivity”; with “QVQLVESGGGLVQAGGSLLLSCAASGFTFWSYAMAWYRQAPRKERELVADISWSGGSTHYADSVKGRFTISRDNAKNTVYLQMNSLKPEDTAVYYCARRFLYPYDHWGQGTQVTVSS”, “high polyreactivity”.
With “QVQLVESGGGLVQAGGSLLLSCAASGGTLRYYAMGWYRQAPGKEREFVASISRSGGSTYYADSVKGRFTISRDNAKNTVYLQMNSLKPEDTAVYYCAAYWSPGYTTRRGYWGQGTQVTVSS” the entry was “high polyreactivity”; with “QVQLVESGGGLVQAGGSLLLSCAASGITFYGNAKGWDRQAPGKERELVAAITFSGGITYYADSVKGRFTISRDNAKNTVYLQMNRLKPEDTAVYYCATDPIGGWTRPQRYGDDYWGQGTQLTVSS”, “low polyreactivity”; with “QVQLVESGGGLVQAGGSLLLSCAASGLTFYLYAMGWYRQAPGKERELVAPISRRGGSTYYADSVKGRFTISRDNAKNTVYFQMKSLKPEYTAVYYCAGAFYSQTDYKFYYWGQGTQVTVSS”, “high polyreactivity”.
As for “QVQLVESGGGLVQAGGSLLLSCAASGRIFRWNAMGWYRQAPGKERELVAAIRSRGGSTYYADSVKGRFTISRDNAKNTVYLQMNSLKPEDSAVYYCNARIASYRSIYDYWGQGTQVTVSS”, the “polyreactivity (PSR sort gate)” value is “high polyreactivity”.
With “QVQLVESGGGLVQAGGSLLLSCAASGRTFGYYAMGWYRQAPGKETELVAAISSGGGTYYADSVKGRFTISRDNAKNTVYLQMNSLKPEDTAVYYCAATGWVYWGQFDYWGQGTQVTVSS”, the “polyreactivity (PSR sort gate)” value was “low polyreactivity”.
With “QVQLVESGGGLVQAGGSLLLSCAASGRTILTYALGWNRQAPGKERDLVAAISKRGGSTYYADSVKGRFTISRDNAKNTVYLQRNSLKPEDTAVYYCAADNVNHYGYWGQGTQVTVSS” the entry was “high polyreactivity”; with “QVQLVESGGGLVQAGGSLLLSCAASGRTLFVYDMGWYRQAPGKERELVAAITWGVGSTYYADSVKGRFTISRDNAKNTVYLQLNSLKPEDTAVYYCNAVAIRYYRWYYYWGQGTQVTVSS”, “high polyreactivity”.
With “QVQLVESGGGLVQAGGSLLLSCAASGRTSAYYAMGWYRQAPGKERELDAGITRGGRTNDADSVKWRFTISRDNAKYTDYFQMNSLNPEDTAVYYCAAKYGFYWNSRTSGYWGQVTQVTVSS” the entry was “high polyreactivity”; with “QVQLVESGGGLVQAGGSLLLSCAASGSIFDAYAMGWYRQSRGKERELVAAITSGGSTYYADSVKGRFTISRDNAKNNVYLQMNSLKPEDTAVYYCAAQYYDYKTTYDYWGQGTQVTVSS”, “high polyreactivity”; with “QVQLVESGGGLVQAGGSLLLSCAASGSIFGKNAMGWYRQAPGKERELVAAISRSGARTYYADSVKGRFTISRDNAKNTVYLQMNSLKPEDTAVYDCAAVYWWAYRGTYSSLYKHFVYWGQGSQVTVSS”, “high polyreactivity”.
With “QVQLVESGGGLVQAGGSLLLSCAASGSIFITYAMGWYRLAPGKERELVAAIRDSGDRTYYADSVKGRFTISRDNAKNTVYLQMNSLKPEDTAVYDCNARWQEPLKYDYWGQGTQVTVSS” the entry was “low polyreactivity”; with “QVQLVESGGGLVQAGGSLLLSCAASGSIFPYYAMGMYRQAPGKERELVAAITDGGSTNYADSVKGRFTISRDNAKNTFYLQMNSLKQEDTAVYYCNKLPGYYDYDYWGQGTQVTVSS”, “low polyreactivity”; with “QVQLVESGGGLVQAGGSLLLSCAASGSIFYSNAMGWYRKAPGKERELVAAIRRSGGSTYYADSVKGRFTISRDNAKYTVYLQMNSLKPEDTAVYYCATTRRVPGEYWGQGTQVTVSS”, “high polyreactivity”.
With “QVQLVESGGGLVQAGGSLLLSCAASGSTFDDKAMGWYRQAPGKERELVAAISSDGSTNYADSVKGRFTISRDTAKNTVYLQMNCLKPADTAVYYCAAESPWDWGSWFEALYDYWGLGTQVTVSS”, the “polyreactivity (PSR sort gate)” value was “high polyreactivity”.
In the case of “QVQLVESGGGLVQAGGSLLLSCAASGSTFDWYVMGWYRPAPGKERELVAAINQGSGSTYYADSVKGRFTISRDNAKNTVYLQMNSLKPEDTAVYYCAADRYGAGYLYWPYDYWGQGTQVTVSS” it was “low polyreactivity”; in that of “QVQLVESGGGLVQAGGSLLLSCAAYGSTFWYNAMGWYRQAHGKESELVAAITWTGSRTYYADSVKGRFTISRDNAKNTVYLQMNSLKPEDTAVYYCNRTRSFTRYDVFYGTIPAFDYWGQGTQVTVSS”, “high polyreactivity”; in that of “QVQLVESGGGLVQAGGSLLLSCSASVLIFYDNDMGWYRQAPGKERVFVAAITSLGGSTYYADSVKGRFTISRDNAKNTVYLQMNSLKPEDTAVYYCNVKSKYYSPNYDYWGQVTQVTVSS”, “low polyreactivity”.
As to “QVQLVESGGGLVQAGGSLLLTCAASGITFGLYAMGWYREAPGKERELVAAIFSGGITYYADSVKGRFTISRDNAKNTVYLQMNSRKPVDTAVYYCAAYKYSYKYYYWGQGTQVTVSS”, the “polyreactivity (PSR sort gate)” value is “low polyreactivity”.
In the case of “QVQLVESGGGLVQAGGSLPLSCAASGFNFRSYAMGWYRQAPGTERELVAAISSGGSTYYADSVKGRFTISRDNAKNTVYLQMNSLKPEDTAVYYCGASRYYGYGHWGQGTQVTVSS” it was “high polyreactivity”; in that of “QVQLVESGGGLVQAGGSLPLSCAASGRIFNQYGMVWYRQAPGKERELVAAIRSGDSTNYADSVKGRFTISRDNAMNTVYLQMKSLKPEDPAVYYCARDRPGDYAGYDYWGQGTQVTVSS”, “low polyreactivity”; in that of “QVQLVESGGGLVQAGGSLPLSCAASGRIFNYYAMGWYRQAPGKERDFVATISTSGGSTYYADSVKARFTISRDNAKNTVYLQMISLKPEDTAVYYCAARRYYSLRTFLYWFSKYDYWGQGTQVTVSS”, “high polyreactivity”.
With “QVQLVESGGGLVQAGGSLPLSCAASGRIFRGYAMGWYRQAPGKERELVAAISRTGGSTYYADSVKGRFTISRDNAKNTVYLQMNSLKPEDTEVYYCNANRFRRYDWGQGTLVTVSS” the entry was “high polyreactivity”.
Turning to “QVQLVESGGGLVQAGGSLPLSCAASGRIFYFNAMGWYRPAPGKEREFVASINSIGDSTYYADSVKGRFTISRDNAKKTVYLQMHSLKPEDTAVYYCNADHGVINYRLDYWGQGTQVTVSS”, the “polyreactivity (PSR sort gate)” value is on record as “low polyreactivity”.
In the case of “QVQLVESGGGLVQAGGSLPLSCAASGRTFRRYAMGWYRQAPGKETELVAAISWGAGSTRYADSVKGRFTISRDNAKNTVYLQLNSLKPEDTAVYYCAAENTRAYGMYYWGQGTQVTVSS” it was “high polyreactivity”.
